{"source": "patent US20090117640A1", "binders": {"B1": {"name": "TGase from S. mobaraense (wild type) (enzyme)", "chain": "DSDDRVTPPAEPLDRMPDPYRPSYGRAETVVNNYIRKWQQVYSHRDGRKQQMTEEQREWLSYGCVGVTWVNSGQYPTNRLAFASFDEDRFKNELKNGRPRSGETRAEFEGRVAKESFDEEKGFQRAREVASVMNRALENAHDESAYLDNLKKELANGNDALRNEDARSPFYSALRNTPSFKERNGGNHDPSRMKAVIYSKHFWSGQDRSSSADKRKYGDPDAFRPAPGTGLVDMSRDRNIPRSPTSPGEGFVNFDYGWFGAQTEADADKTVWTHGNHYHAPNGSLGAMHVYESKFRNWSEGYSDFDRGAYVITFIPKSWNTAPDKVKQGWP"}, "B2": {"name": "Y75E, Y302R TGase (enzyme)", "chain": "B1 chain with Y75E, Y302R"}, "B3": {"name": "Y75E TGase (enzyme)", "chain": "B1 chain with Y75E"}, "B4": {"name": "Y302R TGase (enzyme)", "chain": "B1 chain with Y302R"}, "B5": {"name": "TGase from Streptoverticillium ladakanum (enzyme)", "chain": "DSDERVTPPAEPLDRMPDPYRPSYGRAETIVNNYIRKWQQVYSHRDGRKQQMTEEQREWLSYGCVGVTWVNSGQYPTNRLAFAFFDEDKYKNELKNGRPRSGETRAEFEGRVAKDSFDEAKGFQRARDVASVMNKALENAHDEGAYLDNLKKELANGNDALRNEDARSPFYSALRNTPSFKDRNGGNHDPSKMKAVIYSKHFWSGQDRSGSSDKRKYGDPEAFRPDRGTGLVDMSRDRNIPRSPTSPGESFVNFDYGWFGAQTEADADKTVWTHGNHYHAPNGSLGAMHVYESKFRNWSDGYSDFDRGAYVVTFVPKSWNTAPDKVKQGWP"}}, "assay_in_all_cases": "cell-based or functional assay", "key": {"[1]": {"target": "Human growth hormone (human) (UniProt P01241)", "sequence (P01241 27-217 limits assumed)": "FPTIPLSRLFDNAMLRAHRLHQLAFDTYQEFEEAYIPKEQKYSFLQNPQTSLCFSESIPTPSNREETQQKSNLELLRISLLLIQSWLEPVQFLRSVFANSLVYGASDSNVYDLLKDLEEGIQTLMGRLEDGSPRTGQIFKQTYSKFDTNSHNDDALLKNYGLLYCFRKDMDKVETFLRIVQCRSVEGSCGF"}, "hGH mutant Q141N (human)": {"target": "hGH mutant Q141N (human) (UniProt P01241)", "sequence (P01241 27-217 Q167N)": "as the sequence (P01241 27-217 limits assumed) above, with Q141N counted along it"}, "hGH mutant Q40N (human)": {"target": "hGH mutant Q40N (human) (UniProt P01241)", "sequence (P01241 27-217 Q66N)": "as the sequence (P01241 27-217 limits assumed) above, with Q40N counted along it"}}, "note": "Positions count from the first letter of the chain named. Names and notes keep the numbering of the source."}
{"binder": "B1", "values": [{"measurement": "About 50% hGH reacted at t=, enzyme 0.07 µM (min (printed in h and min))", "setting": "[1]", "result": 75}, {"measurement": "Transamination Gln 40 vs Gln 141 (Gln 40 share), CE, enzyme 0.07 µM (share of mono-transamination products)", "setting": "[1]", "result": 15}, {"measurement": "Transamination Gln 40 vs Gln 141 (Gln 141 share), CE, enzyme 0.07 µM (share of mono-transamination products)", "setting": "[1]", "result": 85}, {"measurement": "Gln 40 vs Gln 141 (normalized), Gln 40 share (normalized ratio)", "setting": "hGH mutant Q141N (human)", "result": 21}, {"measurement": "HPLC peak area of remaining hGH-Q141N (area (arbitrary units))", "setting": "hGH mutant Q141N (human)", "result": 1290}, {"measurement": "Gln 40 vs Gln 141 (normalized), Gln 141 share (normalized ratio)", "setting": "hGH mutant Q40N (human)", "result": 79}, {"measurement": "HPLC peak area of remaining hGH-Q40N (area (arbitrary units))", "setting": "hGH mutant Q40N (human)", "result": 519}]}
{"binder": "B2", "values": [{"measurement": "About 50% hGH reacted at t=, enzyme 7.20 µM (min (printed in h and min))", "setting": "[1]", "result": 90}, {"measurement": "Transamination Gln 40 vs Gln 141 (Gln 40 share), CE, enzyme 7.20 µM (share of mono-transamination products)", "setting": "[1]", "result": 65}, {"measurement": "Transamination Gln 40 vs Gln 141 (Gln 141 share), CE, enzyme 7.20 µM (share of mono-transamination products)", "setting": "[1]", "result": 35}]}
{"binder": "B3", "values": [{"measurement": "About 50% hGH reacted at t=, enzyme 3.90 µM", "setting": "[1]", "result": "< 30", "unit": "min"}, {"measurement": "Transamination Gln 40 vs Gln 141 (Gln 40 share), CE, enzyme 3.90 µM (share of mono-transamination products)", "setting": "[1]", "result": 45}, {"measurement": "Transamination Gln 40 vs Gln 141 (Gln 141 share), CE, enzyme 3.90 µM (share of mono-transamination products)", "setting": "[1]", "result": 55}]}
{"binder": "B4", "values": [{"measurement": "About 50% hGH reacted at t=, enzyme 0.39 µM", "setting": "[1]", "result": 30, "unit": "min"}, {"measurement": "Transamination Gln 40 vs Gln 141 (Gln 40 share), CE, enzyme 0.39 µM (share of mono-transamination products)", "setting": "[1]", "result": 30}, {"measurement": "Transamination Gln 40 vs Gln 141 (Gln 141 share), CE, enzyme 0.39 µM (share of mono-transamination products)", "setting": "[1]", "result": 70}]}
{"binder": "B5", "values": [{"measurement": "Gln 40 vs Gln 141 (normalized), Gln 40 share (normalized ratio)", "setting": "hGH mutant Q141N (human)", "result": 11}, {"measurement": "HPLC peak area of remaining hGH-Q141N (area (arbitrary units))", "setting": "hGH mutant Q141N (human)", "result": 1160}, {"measurement": "Gln 40 vs Gln 141 (normalized), Gln 141 share (normalized ratio)", "setting": "hGH mutant Q40N (human)", "result": 89}, {"measurement": "HPLC peak area of remaining hGH-Q40N (area (arbitrary units))", "setting": "hGH mutant Q40N (human)", "result": 375}]}
